Test results taken from the supplement of paper PMC9170038.

System: MS2 coat protein
Assay: apparent KD of MS2 coat protein; designed switch direction (-1 OFF switch, 1 ON switch): -1; higher = weaker reporter binding
In short: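 An oligonucleotide input, 200 uM small-molecule ligand, or no input was present during titration of SNAP-549-labelled MS2 coat protein, which was doubled from 0.7 or 1.5 nM to 3 µM. Designed RNA switches had been transcribed on Illumina chips by stalled E. coli RNA polymerase. Apparent KD per design is the median over clusters of curves fitted to normalised cluster fluorescence.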

[1] = input ligand: microRNA oligo, concentration not stated
[2] = Eterna round: R95, input ligand: FMN 200 uM
[3] = Eterna round: R95, input ligand: microRNA oligo, concentration not stated
[4] = Eterna round: R95, input ligand: none

Sequence | apparent KD of MS2 coat protein (input ligand: FMN 200 uM) | apparent KD of MS2 coat protein (input ligand: none) | apparent KD of MS2 coat protein [1] | apparent KD of MS2 coat protein [2] | apparent KD of MS2 coat protein [3] | apparent KD of MS2 coat protein [4]
GUUUUGGGAGGAUAUAUGUGGAUAAUUUUUAUAUGAAAUUUACAUGAGGAUCACCCAUGUAGAAGGUCUAGAGC [-18.5, -15.1 kcal, 31% A] (Eterna round: R97, puzzle: Exclusion 2) | 476 nM | 261 nM |  |  |  | 
UAAGGUGGUACCAUGAACAUGAGGAUCACCCAUGUACCUUAGAAGGAUAUCGCGACGUGUACGCGCGAGAAGGUCUACAACGUA [Eternabot solution 35] (Eterna round: R96, puzzle: Exclusion NG 3) | 162 nM | 77.5 nM | 70.1 nM |  |  | 
AAGAGUAGAGGAUAUUGUUUAUGGCACAUGAGGAUCACCCAUGUAGCGAGAGUGGUGCCACAAGAAGGUUGCAUGA [Eternabot (L2) Solution 71] (Eterna round: R97, puzzle: Exclusion 5) | 42.3 nM | 52.5 nM |  |  |  | 
GAUGAGGUAGGAUAUACGAUAAUAUAGGGUAGAUAUAUAACACAUGAGGAUCACCCAUGUAGAAGGACCAGGAG [Mat - Exclusion 2 - Mod of my Tesla design - D65] (puzzle: Exclusion 2) |  |  |  | 77.3 nM | 28.1 nM | 36.1 nM
AGGUGCUUCUGGAGACAUGAGGAUCACCCAUGUUGAGUUAGCGAGGAUAUCGGUAACGCAUGUGAUGAGAAGGCGCAAACCAAU [Ex NG3 #47] (Eterna round: R96, puzzle: Exclusion NG 3) | 79.7 nM | 47 nM | 30.7 nM |  |  | 
AUCCCGCGAGGAUAUACAUGAGGAUCACCCAUGUAGGUUCUGGAUGGGCGAAAUUUGUGUAGAAGGCGCACCAA [Tibeaqu] (Eterna round: R96, puzzle: Exclusion 3) | 38.4 nM | 52 nM | 42.6 nM |  |  | 
CCGGAAAUAGAGGAUAUCGUAUCGGAUACGAUACGAGAAGGCUAUACAUGAGGAUCACCCAUGUGUCCUACCGG [Fiskers Ex 6 - 56] (puzzle: Exclusion 6) |  |  |  |  | 16.1 nM | 
AAUUAACAAGCAAGAUCCUACAUGAGGAUCACCCAUGUGCUCGUCUUAUAAAGUACUAUCACGAAAGUGAUAGUACA [Mat - Sensor v3 - turn-off var 1 - Eli Mod - D57] (puzzle: Sensor v3, turn-off variant 1) |  |  |  | 217 nM | 357 nM | 197 nM
AGAUGUAGAUACCGAUCCUACAUGAGGAUCACCCAUGUAGCUAGACGUGCGGGCGGCGCUCGUCGGACUACCAGUAG [salish99_TOv1_r3_095] (puzzle: Sensor v3, turn-off variant 1) |  |  |  | 163 nM | 155 nM | 232 nM
GAUUAACAUGAGGAUCACCCAUGUGAGGAUAUGAACUUGCCCACUUACCCUUUAGAGUUUAGAAGGCGCAUUCU [1986#33] (Eterna round: R97, puzzle: Exclusion 1) | 22.4 nM | 28.2 nM |  |  |  | 
CUUUAGUGAGGAUAUCAGUAGUAAUACAAUAGUAUUAUUACUGAGAAGGCACAUGAGGAUCACCCAUGUUCCUC [Mat - Exclusion 4 - Mod of Omei - D81] (puzzle: Exclusion 4) |  |  |  |  | 26.9 nM | 
AUGGACGCAGGAUAUACAUGAGGAUCACCCAUGUUAGGGUUGUGAGUAGGAAGGGAAGGUAGAAGGGCGAGAGU [JR_Exclu3_Sub099] (puzzle: Exclusion 3) |  |  |  |  | 86.9 nM | 
GUGUGCAGAGGAUAUACAUAGGAAUAUAAUAUAAUAUAAUUACAUGAGGAUCACCCAUGUAGAAGGCUGAGUGU [Excluse me!! 18 - Jieux - Exclusion 2] (puzzle: Exclusion 2) |  |  |  |  | 24.3 nM | 
CCAUGUUAGCAGGAUAUGCUAUUAAUCUUUUAUGCAGAAGGGCUUACAUGAGGAUCACCCAUGUAUUAAGUCAA [JR_E6_Sub077] (puzzle: Exclusion 6) |  |  |  |  | 13.2 nM | 
UUUUAGUCAGGAUAUACAUUUUUUUAAUUAUUUAUAAUAUUACAUGAGGAUCACCCAUGUAGAAGGGACAUUUU [My Design] (puzzle: Exclusion 2) |  |  |  |  | 28.6 nM | 
UACCUGAGGCAAAGCUUUAGGUAAACAUGAGGAUCACCCAUGUAGGAUAUGGUAGGCAAAGCUUACCAGAAGGACAUGAUAAUU [Mat - Exclusion NG 3 - Mod of JL - D35] (Eterna round: R96, puzzle: Exclusion NG 3) | 544 nM | 80.4 nM | 79.2 nM |  |  | 
AUUAAAACGGCAGGAUAUCAGCGACAUGAGGAUCACCCAUGUUAGGGCUGACCCUGGAGUCUGGCUGAGAAGGGCCGACUCUCA [Riququ] (Eterna round: R96, puzzle: Exclusion NG 2) | 192 nM | 59.9 nM | 33.2 nM |  |  | 
ACGUGAUAUCUGUCGUUGGACAUGAGGAUCACCCAUGUGAGCUUUUUGCUCGUCUUAUAACCCGGUGACAGACCUUC [Aatbebeed] (puzzle: Sensor v3, turn-off variant 1) |  |  |  | 18.4 nM | 247 nM | 16.6 nM
CUUUUGUGAGGAUAUUAGUAGUAAAUAAAUAAAAUUACUACUGAGAAGGCACAUGAGGAUCACCCAUGUUCCUU [salish99_ex4_r3_067] (puzzle: Exclusion 4) |  |  |  |  | 14 nM | 
GCGCUGCGAGGAUAUACAUGAGGAUCACCCAUGUGUCGGCAGCCAUGUUAGUACAAAUGUAGAAGGCGCGUAAA [EX3 #61] (Eterna round: R97, puzzle: Exclusion 3) | 20.8 nM | 18.3 nM |  |  |  | 
GCCUCACAUGAGGAUCACCCAUGUCAGGAUAUACCCAUCCAGCGAAAUUAAAGCUGUAGUAGAAGGGACAUGCA [Bevebeis] (Eterna round: R97, puzzle: Exclusion 1) | 53.7 nM | 18.4 nM |  |  |  | 
UGUACUAUGCGAGCUGACUUGCGUAGUGCAGCAGGUGUAACAUGAGGAUCACCCAUGUCCUCAUUUGCUCGUCUUAA [Mat - Sensor v3 - Turn-off var 2 - D10] (puzzle: Sensor v3, turn-off variant 2) |  |  |  | 458 nM | 196 nM | 388 nM
UUUAAUUUUUUUUUUUUACAAGCUUUUUGCUCGUCUUAUACAUGAGGAUCACCCAUGUGGGUGGAAAGUAAAUUAUC [JMF 47] (puzzle: Sensor v3, turn-off variant 2) |  |  |  | 38.9 nM | 96.3 nM | 56.2 nM
ACAUGAGGAUCACCCAUGUAAACAUGAUGGCUGAUGUAGAGCUAGGAUAUGAGUGAAUAUCUAUCUCAGAAGGAGCUUGACUGG [Deportation 46 - Jieux - Exclusion NG 3] (Eterna round: R96, puzzle: Exclusion NG 3) | 20 nM | 24.9 nM | 15.8 nM |  |  | 
UUGAGGUAAGGAUAUAUUAGGAGCGAAGUUACUUGUUUUUUAUAGAAGGUACAUGAGGAUCACCCAUGUGAAUA [JR_Exclu4_Sub062] (puzzle: Exclusion 4) |  |  |  |  | 24.7 nM | 
GCCCGGGCAGGAUAUACGUGGCCCGGGUAACCGGGCCUCAGACAUGAGGAUCACCCAUGUAGAAGGGCCCGGGC [-44, -43.8 kcal, A 22%] (Eterna round: R97, puzzle: Exclusion 2) | 18.1 nM | 18.3 nM |  |  |  | 
